Results published in PMC6161613, “Lack of correlation between surface expression and currents in epileptogenic AB-calmodulin binding domain Kv7.2 potassium channel mutants” (Channels, 2018).

Target: T1, Recombinant rat brain calmodulin (rat, UniProt P0DP29 1-149)
T1 construct: calmodulin, rat, recombinant; also called CaM; source: E. coli BL21 DE3, purified
Experiment: pull-down; purified GST fusion proteins immobilised on GSH-Sepharose 4B beads; CaM (10 μg) added, 45 min, room temperature; 25 mM Hepes, 120 mM KCl, 5 mM NaCl, pH 7.5 with 5 mM EGTA (10 mM in the results text), no Ca2+; anti-CaM Western blot, band intensities quantified (n = 3)
Settings: both partners purified

- binding result: binds
B1: GST-neurogranin (aa 1-78) (natural protein)
chain: MDCCTENACSKPDDDILDIPLDDPGANAAAAKIQASFRGHMARKKIKSGERGRKGPGPGGPGGAGVARGGAGGGPSGD
notes: neurogranin, aa 1-78, entry NP006167 as printed; also called Nrg; source: E. coli BL21 DE3, purified (GST fusion from pGEX-3X)
